Reference: patent US20220275417A1 (BARCODEBODY, published 2022)

Target: T1, recombinant human sCD4 CF (manufactured by R&D Systems) (human, UniProt P01730 26-390, limits assumed)
T1 construct: Immobilized on the Biacore sensor chip; also called recombinant CD4; CD4 antigen
Experiment: SPR, Biacore T-200, CD4 immobilized on chip, as in Example 2

Row | Binder | Kd | koff | kon
1 | anti-CD4-FLAG (VHH, Secreted from Pichia pastoris with the alpha-factor signal, which is cleaved during secretion; also called Anri-CD4-FLAG; anti-CD4 nanobody with no barcode) VHH: EVQLVESGGGSVQPGGSLTLSCGTSGRTFNVMGWFRQAPGKEREFVAAVRWSSTGIYYTQYADSVKSRFTISRDNAKNTVYLEMNSLKPEDTAVYYCAADTYNSNPARWDGYDFRGQGTQVTVSS | 26 nM | 0.0037 s⁻¹ | 140000 M⁻¹ s⁻¹
2 | anti-CD4 with barcode 4-3 (VHH, secreted from Pichia pastoris) VHH: EVQLVESGGGSVQPGGSLTLSCGTSGRTFNVMGWFRQAPGKEREFVAAVRWSSTGIYYTQYADSVKSRFTISRDNAKNTVYLEMNSLKPEDTAVYYCAADTYNSNPARWDGYDFRGQGTQVTVSS | 26 nM | 0.0036 s⁻¹ | 140000 M⁻¹ s⁻¹
3 | anti-CD4 with barcode 4-1 (VHH, secreted from Pichia pastoris) VHH: EVQLVESGGGSVQPGGSLTLSCGTSGRTFNVMGWFRQAPGKEREFVAAVRWSSTGIYYTQYADSVKSRFTISRDNAKNTVYLEMNSLKPEDTAVYYCAADTYNSNPARWDGYDFRGQGTQVTVSS | 21 nM | 0.003 s⁻¹ | 140000 M⁻¹ s⁻¹
4 | anti-CD4 with barcode 4-4 (VHH, secreted from Pichia pastoris) VHH: EVQLVESGGGSVQPGGSLTLSCGTSGRTFNVMGWFRQAPGKEREFVAAVRWSSTGIYYTQYADSVKSRFTISRDNAKNTVYLEMNSLKPEDTAVYYCAADTYNSNPARWDGYDFRGQGTQVTVSS | 25 nM | 0.0029 s⁻¹ | 120000 M⁻¹ s⁻¹
5 | anti-CD4 with barcode 4-5 (VHH, secreted from Pichia pastoris) VHH: EVQLVESGGGSVQPGGSLTLSCGTSGRTFNVMGWFRQAPGKEREFVAAVRWSSTGIYYTQYADSVKSRFTISRDNAKNTVYLEMNSLKPEDTAVYYCAADTYNSNPARWDGYDFRGQGTQVTVSS | 24 nM | 0.0028 s⁻¹ | 180000 M⁻¹ s⁻¹
6 | anti-CD4 with barcode 4-8 (VHH, secreted from Pichia pastoris) VHH: EVQLVESGGGSVQPGGSLTLSCGTSGRTFNVMGWFRQAPGKEREFVAAVRWSSTGIYYTQYADSVKSRFTISRDNAKNTVYLEMNSLKPEDTAVYYCAADTYNSNPARWDGYDFRGQGTQVTVSS | 19 nM | 0.0029 s⁻¹ | 160000 M⁻¹ s⁻¹
7 | anti-CD4 with barcode 4-6 (VHH, secreted from Pichia pastoris) VHH: EVQLVESGGGSVQPGGSLTLSCGTSGRTFNVMGWFRQAPGKEREFVAAVRWSSTGIYYTQYADSVKSRFTISRDNAKNTVYLEMNSLKPEDTAVYYCAADTYNSNPARWDGYDFRGQGTQVTVSS | 28 nM | 0.0033 s⁻¹ | 120000 M⁻¹ s⁻¹
8 | anti-CD4 with barcode 4-2 (VHH, secreted from Pichia pastoris) VHH: EVQLVESGGGSVQPGGSLTLSCGTSGRTFNVMGWFRQAPGKEREFVAAVRWSSTGIYYTQYADSVKSRFTISRDNAKNTVYLEMNSLKPEDTAVYYCAADTYNSNPARWDGYDFRGQGTQVTVSS | 28 nM | 0.0028 s⁻¹ | 100000 M⁻¹ s⁻¹
9 | anti-CD4 with barcode 4-7 (VHH, secreted from Pichia pastoris) VHH: EVQLVESGGGSVQPGGSLTLSCGTSGRTFNVMGWFRQAPGKEREFVAAVRWSSTGIYYTQYADSVKSRFTISRDNAKNTVYLEMNSLKPEDTAVYYCAADTYNSNPARWDGYDFRGQGTQVTVSS | 24 nM | 0.0028 s⁻¹ | 110000 M⁻¹ s⁻¹

Target: T1, recombinant human sCD4 CF (manufactured …)
Experiment: SPR, Biacore T-200, antigen immobilized on chip, nanobody as analyte

Row | Binder | Kd | koff | kon
10 | anti-CD4-FLAG (VHH, Secreted from Pichia pastoris with the alpha-factor signal, which is cleaved during secretion; also called Anri-CD4-FLAG; anti-CD4 nanobody with no barcode) VHH: EVQLVESGGGSVQPGGSLTLSCGTSGRTFNVMGWFRQAPGKEREFVAAVRWSSTGIYYTQYADSVKSRFTISRDNAKNTVYLEMNSLKPEDTAVYYCAADTYNSNPARWDGYDFRGQGTQVTVSS | 42 nM | 0.0054 s⁻¹ | 68000 M⁻¹ s⁻¹
11 | anti-CD4-FLAG-barcode 1 (VHH, Secreted from Pichia pastoris with the alpha-factor signal, which is cleaved during secretion; also called anti-CD4 nanobody) VHH: EVQLVESGGGSVQPGGSLTLSCGTSGRTFNVMGWFRQAPGKEREFVAAVRWSSTGIYYTQYADSVKSRFTISRDNAKNTVYLEMNSLKPEDTAVYYCAADTYNSNPARWDGYDFRGQGTQVTVSS | 52 nM | 0.004 s⁻¹ | 77000 M⁻¹ s⁻¹

Target: T2, CD4 on the surface of HEK293 cells transfected with pCAGGS-CD4-myc (UniProt P01730 26-458, limits assumed)
T2 construct: whole, on cells; Cells were fixed with 4% paraformaldehyde before staining; also called CD4 surface expressing cells
Experiment: immunofluorescence staining of fixed CD4-expressing HEK293 cells, anti-FLAG-AF488 secondary

Row | Binder | binding result
12 | anti-GFP-FLAG-barcode 2 (VHH, also called anti-GFP nanobody) VHH: QVQLVESGGALVQPGGSLRLSCAASGFPVNRYSMRWYRQAPGKEREWVAGMSSAGDRSSYEDSVKGRFTISRDDARNTVYLQMNSLKPEDTAVYYCNVNVGFEYWGQGTQVTVSS | no binding (tested: 3.3 µg/ml)

Target: T1, recombinant human sCD4 CF (manufactured …)
Experiment: simultaneous binding assay on CD4-immobilized magnetic beads, barcode cleaved by enterokinase and quantified by LC-MS/MS

Row | Binder | binding result
13 | anti-GFP-FLAG-barcode 2 (VHH, also called anti-GFP nanobody) VHH: QVQLVESGGALVQPGGSLRLSCAASGFPVNRYSMRWYRQAPGKEREWVAGMSSAGDRSSYEDSVKGRFTISRDDARNTVYLQMNSLKPEDTAVYYCNVNVGFEYWGQGTQVTVSS | no binding (tested: 0.1 µM)
